What was measured:
[1] = system: Drosophila model of LRRK2 G2019S neurodegeneration; experiment: Drosophila adult survival: Rab modifier screen of the LRRK2 G2019S early adult lethality phenotype; format: in vivo; details: for Average adult lifespan: TH-driven Rab GTPase transgene co-expressed with LRRK2 G2019S in Drosophila dopamine neurons, days post-eclosion; for rescue of the LRRK2 G2019S premature mortality phenotype (survival): co-expression with LRRK2 G2019S in Drosophila dopamine neurons
From the text: To pursue potential mechanisms of LRRK2 pathology in vivo, a Drosophila model was established. […] Dopamine neuron-selective expression of human familial PD-associated G2019S-mutant LRRK2—using either a tyrosine hydroxylase (TH) (Friggi-Grelin et al., 2003) or dopa decarboxylase (DDC) promoter-Gal4 driver (Fischer et al., 1988)—induced premature mortality of young adult animals (FIG. 4A; nontransgenic mean lifespan 37.1 days+/−1; G2019S mean lifespan 4.8 days+/−0.2), akin to previous reports (Ng et al., 2009).
Subsequently a targeted screen for potential genetic modifiers of the LRRK2 G2019S mutant phenotype was performed, based on the idea that LRRK2 may modify a specific intracellular trafficking process, and focused on RAB7L1. A series of 16 Drosophila Rab genes, (see Table 4; out of 33 identified in Drosophila), or CA or IN forms of these (Zhang et al., 2007), were investigated.
Briefly, LRRK2 G2019S mutants were mated with a panel of previously described transgenic Drosophila strains that allow for overexpression of wild-type (WT) or constitutively active (CA), forms of the Rab genes (Zhang et al., 2007), using a standard balancer chromosome-based mating scheme. Co-expression of a majority of these Rab transgenes with LRRK2 within dopamine neurons produced no effect on the survival of animals co-expressing LRRK2 G2019S (FIG. 4A; Table 4).
(§1) Drosophila were cultured by standard methods on yeast-cornmeal-agar medium at 25° C. Wild-type and mutant G2019S LRRK2 transgenes were expressed specifically in catecholaminergic neurons, including dopamine neurons, using the Gal4-UAS system described (Fischer et al., 1988). Driver lines used include OK6 (motor neuron), Gmr (eye), G14 (muscle), TH (dopaminergic neuron), and DDC (dopaminergic neuron). A UAS-GFP::nuclear localization sequence (NLS) marker was used to visualize nucleii of cells in which trangenes were expressed (stock 4775 (w 1118; P{UAS-GFP.nls}14), Drosophila Stock Center, Bloomington, Ind.). For the RAB screen, UAS-LRRK2 (G2019S) transgenic Drosophila, crossed with the TH-Gal4 driver, were screened against a UAS-Rab transgenic library (Zhang et al., 2007). Crossings were typically performed using standard balancer chromosome techniques. To generate strains in which the homozygous LRRK2 transgene and another (Driver or marker) transgene lay on the same chromosome (III), genetic recombination was using standard techniques. Adult Drosophila mushroom bodies were dissected as in (Wu and Luo, 2006) and imaged immediately, without fixation, using a Zeiss LSM510 Meta confocal fluorescent microscope. For mortality curves, transgenic Drosophila surviving through adult metamorphosis were counted daily, from the day of pupal eclosion onward. Locomotion deficits were assessed by methods know in the art.

[2] = system: Lrrk mutant (−/−) Drosophila; experiment: Negative geotaxis analysis of lrrk mutant Drosophila; format: in vivo; details: pan-neuronal expression in lrrk mutant (−/−) Drosophila
Experimental: FIG. 11 is a bar graph showing a negative geotaxis analysis of lrrk mutant Drosophila. […] Bars represent Mean times to climb 10 cm upward in a cylinder are represented. Error bars are SEM. ***: p<0.001, for comparison with the non-transgenic group by ANOVA (df=3, F=13.14) followed by Tukey HSD post hoc analysis.
as §1, with “To generate strains in which the homozygous LRRK2 transgene and another (Driver or marker) transgene lay on the same chromosome (III), genetic recombination was using standard techniques. Adult Drosophila mushroom bodies were dissected as in (Wu and Luo, 2006) and imaged immediately, without fixation, using a Zeiss LSM510 Meta confocal fluorescent microscope.” left out

[3] = system: rat primary cortical neurons; experiment: Neurite length assay in transfected primary cortical neuron cultures; format: cell-based; details: co-transfection with LRRK2 G2019S (0.5 μg/well); test vector 1 μg/well
From the text: As 5 candidate genes are present within the PARK16 locus (SLC45A3, NUCKS, RAB7L1, SLC41A1, and PM20D1), each of the genes were experimentally screened for a functional interaction with LRRK2 (FIG. 2A). A previously-described primary rat neuron in vitro culture model was used, in which transient expression of familial PD-associated LRRK2 G2019S or R1441C mutant alleles leads to a marked reduction in neurite process length (MacLeod et al., 2006). […] RAB7L1 is a small cytosolic GTPase, structurally distinct from RAB7 despite its name (also known as RAB29) (Shimizu et al., 1997). […] But the function of RAB7L1 in CNS neurons remains unknown. Orthologues of RAB7L1 in other organisms, including C. elegans Glo-1 and Drosophila melanogaster Lighloid, have been implicated in trafficking to lysosome-related organelles (Hermann et al., 2005) and in the regulation of neurite process length (Grill et al., 2007), reminiscent of LRRK2 mutant phenotypes (MacLeod et al., 2006). Thus this gene was of particular interest.
Sprague-Dawley rat or mouse PI primary dissociated cortical cultures were prepared and transfected essentially as described (Xia et al., 1996) with the following modifications: cells were plated at high density, approximately 250,000 cells/cm2, in 24-well plates with 500 ul medium/well. Culture medium used for plating cells was Neurobasal-A supplemented with 2% B-27 and 10% FBS. At 1 day after plating, medium was changed to reduced serum (1% FBS+added antimitotic agents: 70 μM uridine and 25 μM 5-fluorodeoxyuridine) and replaced weekly thereafter; for transfections no DMSO was added to the transfection mixture, cells were not subjected to glycerol shock, and a total of 3 μg plasmid DNA was used per well. Cells were fixed in 4% PFA and immunostained with mouse α-RAB7L1 (Santa Cruz, 1:100), and rabbit monoclonal α-LRRK2 (Michal J. Fox Foundation MJFF4, 1:100), then with appropriate fluorescent secondaries (Jackson, 1:1000-2000). Neurite length and neurite puncta (defined as swellings greater than 2 um in diameter) were counted for at least 20 neurons per condition. Mean puncta number per neuron was normalized to total average neurite length versus wild-type LRRK2 transfected cells. Fluorescent microscopy was performed using a Nikon TE 2000-S microscope and a Zeiss LSM510 Meta confocal microscope. Images were analyzed using Image-Pro Plus (Mediacybernetics) software version 5.1.0.20.

G2019S: human familial PD-associated G2019S-mutant LRRK2 transgene
mean lifespan ([1]; dopamine neuron-selective expression of the LRRK2 transgene alone (TH or DDC Gal4 driver)): 4.8 days
defective negative geotaxis (time to climb 10 cm) [2]: can be rescued

SLC41A1: PARK16 locus gene overexpression vector
LRRK2 mutation-induced neurite length phenotype [3]: failed to rescue

human LRRK2 WT: wild-type human LRRK2 transgene
phenotype on transgenic expression ([1]; dopamine neuron-selective expression of the LRRK2 transgene alone): did not lead to a discernible phenotype
defective negative geotaxis (time to climb 10 cm) [2]: can be rescued

B1: SLC45A3: PARK16 locus gene overexpression vector (protein, UniProt Q96JT2 1-553, looked up)
Solute carrier family 45 …: MVQRLWVSRLLRHRKAQLLLVNLLTFGLEVCLAAGITYVPPLLLEVGVEEKFMTMVLGIGPVLGLVCVPLLGSASDHWRGRYGRRRPFIWALSLGILLSLFLIPRAGWLAGLLCPDPRPLELALLILGVGLLDFCGQVCFTPLEALLSDLFRDPDHCRQAYSVYAFMISLGGCLGYLLPAIDWDTSALAPYLGTQEECLFGLLTLIFLTCVAATLLVAEEAALGPTEPAEGLSAPSLSPHCCPCRARLAFRNLGALLPRLHQLCCRMPRTLRRLFVAELCSWMALMTFTLFYTDFVGEGLYQGVPRAEPGTEARRHYDEGVRMGSLGLFLQCAISLVFSLVMDRLVQRFGTRAVYLASVAAFPVAAGATCLSHSVAVVTASAALTGFTFSALQILPYTLASLYHREKQVFLPKYRGDTGGASSEDSLMTSFLPGPKPGAPFPNGHVGAGGSGLLPPPPALCGASACDVSVRVVVGEPTEARVVPGRGICLDLAILDSAFLLSQVAPSLFMGSIVQLSQSVTAYMVSAAGLGLVAIYFATQVVFDKSDLAKYSA
LRRK2 mutation-induced neurite length phenotype [3]: failed to rescue

B2: Rab7L1WT: TH-driven wild-type Drosophila RAB7L1 orthologue (termed lightoid) transgene (protein)
chain: MGSRDHLFKVLVVGDAAVGKTSLVQRYSQDSFSKHYKSTVGVDFALKVLQWSDSEMVRLQLWDIAGQERFTSMTRLYYRDASACVIMFDVTNATTFSNSQRWKQDLDSKLTLPSGEPVPCLLLANKSDLSPWAVSRDQIDRFSKENGFTGWTETSVKENKNINEAMRVLVEKMMNNSREDIMSSSTQGNYINLQTKPSPGWTCC
modifications: left off: large carriers
notes: TH-driven wild-type Drosophila RAB7L1 orthologue (termed lightoid) transgene
Average adult lifespan [1]: 23.3 days
rescue of the LRRK2 G2019S premature mortality phenotype (survival) [1]: dramatic rescue

B3: RAB3A: Rab family member expression vector (protein, UniProt P20336 1-220, looked up)
Ras-related protein Rab-3A: MASATDSRYGQKESSDQNFDYMFKILIIGNSSVGKTSFLFRYADDSFTPAFVSTVGIDFKVKTIYRNDKRIKLQIWDTAGQERYRTITTAYYRGAMGFILMYDITNEESFNAVQDWSTQIKTYSWDNAQVLLVGNKCDMEDERVVSSERGRQLADHLGFEFFEASAKDNINVKQTFERLVDVICEKMSESLDTADPAVTGAKQGPQLSDQQVPPHQDCAC
LRRK2 mutation-induced neurite length phenotype [3]: failed to rescue the phenotype

B4: NUCKS1: PARK16 locus gene overexpression vector (protein, UniProt Q9H1E3 1-243, looked up)
Nuclear ubiquitous casein and …: MSRPVRNRKVVDYSQFQESDDADEDYGRDSGPPTKKIRSSPREAKNKRRSGKNSQEDSEDSEDKDVKTKKDDSHSAEDSEDEKEDHKNVRQQRQAASKAASKQREMLMEDVGSEEEQEEEDEAPFQEKDSGSDEDFLMEDDDDSDYGSSKKKNKKMVKKSKPERKEKKMPKPRLKATVTPSPVKGKGKVGRPTASKASKEKTPSPKEEDEEPESPPEKKTSTSPPPEKSGDEGSEDEAPSGED
LRRK2 mutation-induced neurite length phenotype [3]: failed to rescue

B5: Rab7WT: TH-driven Drosophila Rab GTPase transgene, wild-type Rab7 (protein, UniProt O76742 1-207, looked up)
Ras-related protein Rab7: MSGRKKSLLKVIILGDSSVGKTSLMNQYVNKRFSNQYKATIGADFCTKEVVVNDRVVTMQIWDTAGQERFQSLGVAFYRGADCCVLVYDVTAPNSFKNLDSWRDEFLIQASPRDPDHFPFVVLGNKVDLDNRQVSTRRAQQWCQSKNDIPYYETSAKEGINVEMAFQVIAKNALELEAEAEVINDFPDQITLGSQNNRPGNPDNCQC
mean lifespan ([1]; Rab transgene co-expressed with LRRK2 G2019S in dopamine neurons): 14.3 days
Average adult lifespan [1]: 10.2 days
rescue of the LRRK2 G2019S premature mortality phenotype (survival) [1]: statistically significant—albeit much weaker—survival benefit

B6: RAB5A: Rab family member expression vector (protein, UniProt P20339 1-215, looked up)
Ras-related protein Rab-5A: MASRGATRPNGPNTGNKICQFKLVLLGESAVGKSSLVLRFVKGQFHEFQESTIGAAFLTQTVCLDDTTVKFEIWDTAGQERYHSLAPMYYRGAQAAIVVYDITNEESFARAKNWVKELQRQASPNIVIALSGNKADLANKRAVDFQEAQSYADDNSLLFMETSAKTSMNVNEIFMAIAKKLPKNEPQNPGANSARGRGVDLTEPTQPTRNQCCSN
LRRK2 mutation-induced neurite length phenotype [3]: failed to rescue the phenotype

B7: PM20D1: PARK16 locus gene overexpression vector (protein, UniProt Q6GTS8 26-502, looked up)
N-fatty-acyl-amino acid …: MGPRSGEHQRASRIPSQFSKEERVAMKEALKGAIQIPTVTFSSEKSNTTALAEFGKYIHKVFPTVVSTSFIQHEVVEEYSHLFTIQGSDPSLQPYLLMAHFDVVPAPEEGWEVPPFSGLERDGIIYGRGTLDDKNSVMALLQALELLLIRKYIPRRSFFISLGHDEESSGTGAQRISALLQSRGVQLAFIVDEGGFILDDFIPNFKKPIALIAVSEKGSMNLMLQVNMTSGHSSAPPKETSIGILAAAVSRLEQTPMPIIFGSGTVVTVLQQLANEFPFPVNIILSNPWLFEPLISRFMERNPLTNAIIRTTTALTIFKAGVKFNVIPPVAQATVNFRIHPGQTVQEVLELTKNIVADNRVQFHVLSAFDPLPVSPSDDKALGYQLLRQTVQSVFPEVNITAPVTSIGNTDSRFFTNLTTGIYRFYPIYIQPEDFKRIHGVNEKISVQAYETQVKFIFELIQNADTDQEPVSHLHKL
LRRK2 mutation-induced neurite length phenotype [3]: failed to rescue
